Test results reported in the supplement of paper PMC12764529.
± gives the half width of the 95% confidence interval.

Assays:
[1] = folding stability dG unfold from trypsin proteolysis; higher = more stable
Outline: (§1)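 Mini-proteins designed to be under 80 residues and free of cysteine were carried in a PA-tagged cDNA display construct and digested with trypsin and with chymotrypsin. Each protease was applied at 11 threefold-diluted concentrations, alongside a no-protease condition, before sequencing. K50 came from Bayesian fitting of the sequencing counts, and unfolding free energy was obtained by comparing it with a sequence-predicted unfolded-state K50 and a shared folded-state K50, for each protease separately or for both together. Designs were retained only if their AlphaFold2 dimer inter-PAE exceeded 15.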

[2] = folding stability dG unfold (combined trypsin and chymotrypsin); higher = more stable
Outline: as §1

[3] = folding stability dG unfold from chymotrypsin proteolysis; higher = more stable
Outline: as §1

| Sequence | folding stability dG unfold [1] [kcal/mol] | folding stability dG unfold [2] [kcal/mol] | folding stability dG unfold [3] [kcal/mol] |
| --- | --- | --- | --- |
| SAGGSPNFRIHIEGPEGKTLQYPVDPGFNKPDIQDWLQELGNIEIDQHPNDGWITIRIPKDALDQFSAGGSA [r2_164_TrROS] | 0.226 ± 0.12 | 0.161 ± 0.27 | 0.0882 ± 0.21 |
| SAGGSPNIKITSKEKEGSKLKYTIQTPDKTITIEYSEGKATFKFPDGSTKTLTGKGSLEKAIKEAVLSSAGG [r13_98_JUSTAS] | 0.936 ± 0.11 | 1.59 ± 0.2 | 1.99 ± 0.25 |
| SAGGSPPDKWVTLPFTMRYPDNGLEVEVNIVINPDDGKIQVEMEVYDNGKPKQEVPATIPADEIKLSAGGSA [r2_188_TrROS] | 0.639 ± 0.035 | 0.699 ± 0.13 | 0.594 ± 0.23 |
| SAGGSPPNITYELTFPDGTVYTDPLPGKSLEELKEYVKSLNFTNVEVTVYEESSEVSTYKVTIPPNESAGGS [r16_700_JUSTAS] | 0.169 ± 0.079 | 0.437 ± 0.12 | 0.57 ± 0.13 |
| SAGGSPSTVVPTLLTLEIVKKDEKGNETSETIPVLVEDSPEEARERLIEEIEKKYGAEVVKVTVKPESAGGS [r16_511_JUSTAS] | -0.576 ± 0.07 | -0.608 ± 0.18 | -1.22 ± 0.27 |
| SAGGSQRFRITELVVPEDDGNLFIRVRGPNGKSMFMPASDIEKARKNGKEIEFPFPNGQPFEVEIISAGGSA [r2_301_TrROS] | -0.34 ± 0.44 | -0.411 ± 0.33 | -0.461 ± 0.66 |
| SAGGSRTVLLYDPDNPRPYIVEYDPATGTLRIYDPETGELVAEFPIPDLKDIEAPVVPNGILLGAIVDSAGG [r13_720_TrMRF] | 1.03 ± 0.023 | 1.68 ± 0.075 | 1.998 ± 0.018 |
| SAGGSSGSIDRVELLSFDPEKGIALVRFPSFGSIQVIPIPPGKNSLKVKVINKNGEPFEFTFSLPLSAGGSA [r2_132_TrMRF] | 2.82 ± 0.082 | 3 ± 0.07 | 3.1 ± 0.043 |
| SAGGSSITVTDETTVEVSPTGSPTGPPVATVTTTTSTTTTTYYDPKTGTSTETTTTTTTTTTSTGASAGGSA [r2_269_JUSTAS] | 0.603 ± 0.067 | 0.382 ± 0.15 | 0.192 ± 0.11 |
| SAGGSSMEVEIDTSKSTTTYTHPSGEKVATRSLVLTPPSPGDPLRFLNVEFEKLPDGSVVVKKIVGSAGGSA [r2_362_JUSTAS] | -0.338 ± 0.17 | -0.0806 ± 0.22 | -0.142 ± 0.32 |
| SAGGSSMYKTTTTPLSTFPVRDENGNFLEETKFEKTTVTYPDGSTVTVLKIEVGGKTFTLEVTPTPSAGGSA [r2_158_JUSTAS] | 0.0145 ± 0.075 | 0.565 ± 0.18 | 0.952 ± 0.18 |
| SAGGSSPELAAERLAEELRRQGYAVREVVVTYDPAGTVTVSAVIEDPADPAATSTLTVTVPLAELGSAGGSA [r2_384_JUSTAS] | 2.45 ± 0.059 | 2.73 ± 0.046 | 2.91 ± 0.024 |
| SAGGSSSLAIITIKPKEIKSYYNPNNPVVVSEMEFEVDITIYSDNEISPEKVKELIEEIEKAFPGIKSAGGS [r8_306_TrMRF] | 1.31 ± 0.051 | 2.32 ± 0.18 | 2.88 ± 0.11 |
| SAGGSSSSALVTVPRTETFPGTTLTTETLITIDPETGTVKVTSTVYSEGEPVEVVPSTVPAAEVTLSAGGSA [r2_188_JUSTAS] | 0.566 ± 0.036 | 0.592 ± 0.077 | 0.503 ± 0.051 |
| SAGGSSSSLIGEIKLPSNVTIKIERSSKGVRTAVVTFPETGKVVTLPLDPNVSIEEIIEKVKEIVEKKSAGG [r13_624_JUSTAS] | 2.06 ± 0.093 | 1.71 ± 0.066 | 1.29 ± 0.043 |
| SAGGSTITTDVPEARELLEELVKAGIKNIKVTVELDGSTVTLEVPPDELEKLVEEIPPEAKVTLEASSAGGS [r16_636_JUSTAS] | 0.442 ± 0.019 | 1.12 ± 0.062 | 1.44 ± 0.041 |
| SAGGSTVSVVPFPDYLLVVTTDVRRTPVPDTDTVSTELTTTVTVIPLPDVPPPVLPFLDADGNPYYASAGGS [r8_46_TrMRF] | 1.01 ± 0.093 | 0.694 ± 0.093 | 0.522 ± 0.11 |
| SAGGSVDIKRIEIYHPPDDKIYIRIDAVASPEHPEDPELRKAQAEALRKPVIEELMKKLGIEPEELSAGGSA [r2_306_JUSTAS] | 0.241 ± 0.075 | 0.468 ± 0.12 | 0.61 ± 0.073 |
| SAGGSVEIWILLPPNNPDLDKIREKLRDEPGIDDVNVKVVKPTPGYWVFEIEVNGDPEVADKIRDLISAGGS [r16_394_TrROS] | 1.09 ± 0.1 | 1.51 ± 0.26 | 1.61 ± 0.18 |
| SAGGSVRVETEFERLPDGPIVVRVRITLPNGETLEFTAVYYPEPSGIPMFVPEPVPPNAIEGIDIKVSAGGS [r16_95_TrMRF] | 2.55 ± 0.09 | 2.11 ± 0.16 | 1.78 ± 0.047 |
| SAGGSVTITSITSIDTSSLSPDSVVTADVPDGKPVLIKGKVPPDGSVILTFYTPDGKPVATFTIPSSAGGSA [r2_323_JUSTAS] | 0.508 ± 0.017 | 0.669 ± 0.06 | 0.779 ± 0.056 |

| Sequence | folding stability dG unfold [1] [kcal/mol] | folding stability dG unfold [2] [kcal/mol] | folding stability dG unfold [3] [kcal/mol] |
| --- | --- | --- | --- |
| SAGGSVTLPDATVVKVPPSQDWQEHADRLAAEIREAGADYEVSVESTPDGSVLITITVPGRTWTMVTSAGGS [r16_771_JUSTAS] | 1.15 ± 0.032 | 0.936 ± 0.03 | 0.49 ± 0.077 |
| SAGGSVTTETDEYFYPDNLFTVAKTTLYVGSGPVEATAVSYPTFTLVNVHYPDGSVDTFLFTLTDDSSAGGS [r16_108_TrMRF] | 2.38 ± 0.11 | 3.08 ± 0.13 | 3.56 ± 0.06 |
| SAGGSVVTTTFTYPDGTVVTTTTTPRPETLLTTTTTTTFYPDKPVKVAPGKEVVTTVTTTTTTVTPAASAGG [r13_780_JUSTAS] | 0.378 ± 0.03 | 0.54 ± 0.069 | 0.574 ± 0.12 |
| SAGGSWVIIIQITIRNPGEERKITIPMEEIQGMPLEQIADNLRKLPGIGDVTIEIQEFPPPKPNDPSAGGSA [r2_282_TrROS] | 2.31 ± 0.11 | 2.31 ± 0.2 | 2.34 ± 0.099 |
| SAGGSYLDEVREKILKEYPLKPGEPKEIEITVPLPSGRTVKIKIPVTVDPKTGKVEAKFEVLEETKESAGGS [r16_634_JUSTAS] | 0.395 ± 0.033 | 0.934 ± 0.074 | 1.22 ± 0.028 |
| SAGGSYLVEVVIEYPKQGVKKTVKLFVNNDPKKAEELAEDIIKELGYPDAKIEIKIIPVDPNDPRVLGSAGG [r13_682_JUSTAS] | 1.98 ± 0.034 | 2.25 ± 0.057 | 2.445 ± 0.022 |
| SAGGTFQVKDPNGKQKPVQLRVRITFEFKGGDKQTFEIEVEGATVDDLREFANSLMNKGFKPVSIEIWSAGG [r13_227_TrROS] | 1.595 ± 0.0094 | 1.88 ± 0.048 | 2.03 ± 0.047 |
| SAGGTIKITIKAENLTEEEKEELAKKIADELKKKGYKVKKVEVTVEKEKEKTVTITLENGKKIEVKLSAGGS [r8_485_TrROS_Hall] | 1.49 ± 0.072 | 2.31 ± 0.18 | 2.56 ± 0.038 |
| SAGGTITIELDGVTIEVRVEEKDGTLTLTAKVYNKDTGEVFEIEITITRKEDGSVTITIKITKIEPLPSAGG [r13_1004_TrROS_Hall] | 2.44 ± 0.16 | 3.87 ± 0.53 | 3.96 ± 0.28 |
| SAGGTIYIWFPMKVDEAVDLAKELAENKDWKIEIYNGGKEHEIELDKIEPVPPENVRVYIEIEPKPDSAGGS [r16_628_TrROS] | 0.423 ± 0.041 | 1.26 ± 0.097 | 1.64 ± 0.082 |
| SAGGTMKYDVEQKYKYPDPDGNPGGEGKHTQEVEVPPPPVIIIPPNDRELAKELAEKFGIPITPDDIASAGG [r19_315_TrROS] | 0.854 ± 0.18 | 0.609 ± 0.39 | 0.5 ± 0.25 |
| SAGGTSPVTIPVTFDDLPPDAVDEAKARAEELAEELRAQGHEVLSVTIEIEPGRVTVTLTVTFPGGAPLSAG [r5_515_JUSTAS] | 1.93 ± 0.081 | 1.3 ± 0.12 | 0.623 ± 0.054 |
| SAGGTTTTLTFETEEEAREFAEELREKHPDVVLEVEIRRETRTVTVPGVGEVREVDRVVVTVTLTPASAGGS [r16_828_JUSTAS] | 2.03 ± 0.054 | 2.89 ± 0.07 | 3.27 ± 0.064 |
| SAGGVDKGPPDAEVSREVLPRKLPNGKELLEEIRTRVLASGSLLVDRTIRDPNSDKVESEELVDPGASAGGS [r8_129_JUSTAS] | 0.021 ± 0.31 | -0.0613 ± 0.32 | -0.0363 ± 0.16 |
| SAGGVEREPTEEDLLVATAEFLIEVRDPDSDYPLVEPVPITLPFTSLEDLLEELRRLKAEVEEALASSAGGS [r16_624_TrMRF] | 1.88 ± 0.092 | 1.7 ± 0.14 | 1.63 ± 0.073 |
| SAGGVKEIEIPNGMRITDVDPPDGYWKIKIENPDNGKEVERPIPPGDKLKIPPNAPVTITEIEPYPPSAGGS [r16_123_TrROS] | -0.613 ± 0.27 | < -1 | -0.103 ± 0.48 |
| SAGGVNPTDPAQATTTETTPSLVTLPNGEKVLVTTTTTTTPDGSTTTTTTTTNAATGATTSTTTTTASAGGS [r8_252_JUSTAS] | 1.97 ± 0.14 | 2.19 ± 0.14 | 2.39 ± 0.14 |
| SAGGVREIAKRIANFAREHGYEVEVDEIEPPPNGYVVIDAKIQMRDGGKPVHEFPISIRFPPPPGDPSAGGS [r8_102_TrROS] | 3.98 ± 0.43 | 3.86 ± 0.68 | 3.51 ± 0.16 |
| SAGGWHTIQINVRRPGKPITPEKIKEALREAYPGYPIEVEDINPEDGRITITVPENAMPRIKEALMKSAGGS [r8_235_TrROS] | 1.06 ± 0.041 | 1.01 ± 0.11 | 0.896 ± 0.076 |
| SAGGWITVNQIRDLAKELPPGWRIKIKIEYPGKKHEHTIPPGDPITIPPNMPPEDITRIEITEIEPYSAGGS [r16_97_TrROS] | 0.476 ± 0.062 | 0.575 ± 0.11 | 0.444 ± 0.18 |
| SAGGWMTWEFELEDEDGKDIKIEVEQNPGNPWWRVKIEHKGGKPIPEIPIPADSPDDAIDQARDLLKSAGGS [r16_158_TrROS] | 0.17 ± 0.21 | -0.149 ± 0.33 | -0.0698 ± 0.49 |
